Experimental data published in patent US20220088131A1, “COMPOSITIONS AND METHODS RELATING TO C5L2” (King's College London, priority 2013, published 2022).

Key:
[1] = tested on: natural regulatory T cells (nTregs); assay: nTreg suppression assay (CFSE dilution); format: cell-based, human; conditions: nTregs pre-incubated with 7 μM dRA for 8 hr; 1:1 co-culture; FIG. 14
Protocol: FIG. 14. C5L2 blockage decreases suppressive activity of natural regulatory T cells (nTregs). nTregs and effector T cells from a freshly drawn human blood sample were separated by cell sorting (CD4^+CD25^hiCD127^lo Treg cells; CD4^+CD25^loCD127^hi effector T cells). nTreg cells were incubated in media containing 7 μM of the C5ar/C5L2 double antagonist (dRA) for 8 hr. Cells were then washed twice to remove the dRA and used for a suppression assay via CSFE dilution measurement in 1:1 co-culture and percentage of suppression calculated. Shown are the mean values of two separately performed experiments.
nTregs were isolated essentially as described in Yates, J., et al., Int Immunol. (2007) 19(6):785-99. […]
Principle • Label target cells (T effectors (Teff) usually) with 1 μM CFSE as described • Activate cells with and without Tregs in serial dilution (constant Teff numbers) • CFSE will be evenly split among daughter cells, so peaks on flow will correspond to each round of division (halving of CFSE) • The percentage of dividing precursors can be calculated this way. • In the presence of Tregs, the suppression of division can be estimated. […]
• 1. […] Acquire FL1 fluorescence of each well on day 4 and calculate suppression of CFSE dilution by Tregs (different methods exist for this) * If there is inadequate CFSE labelling, pulse with ^3H-Thymidine on day 5 instead, as a readout for suppression. […]

human CD4+ T cells = assay: IL-1β secretion by CD4+ T cells (ELISA); format: cell-based; conditions: resting and activated (CD3/CD46) CD4+ T cells; dRA 7 μM; 24 h; FIG. 8
Protocol: FIG. 8. Effect of C5L2 blockage on IL-1β secretion by resting and activated CD4+ T cells and by monocytes. […] CD4+ T cells were isolated and left non-activated or CD3/CD46-activated as described (with or without addition of the C5aR/C5L2 double antagonist, dRA, 7 μM) and IL-1β secretion into the media measured at 24 h post activation using an ELISA. CD14+ monocytes (2.5×10^5) were left non-activated or activated with 100 ng/ml LPS for 12 h and supernatants assayed for IL-1β by ELISA. Data represent n=3 experiments with SEM for the CD4+ T cells and n=1 for monocytes (conditions were performed in duplicate and shown are the median values of each condition).
Human blood was obtained from healthy volunteers following ethical guidelines set by Kings College London (KCL) ethics committee (REC: 09/H0804/72). PBMCs were isolated by density centrifugation (Ficoll-Paque PLUS; GE healthcare, Uppsala, Sweden). Cell subsets were isolated by magnetic separation following manufacturer's instructions (Miltenyi Biotec, Auburn, Calif.). […]
The Th1/Th2/Th17 Cytometric Bead Array (BD Bioscience) was used to quantify cytokine production by CD4^+ T cells and monocytes following 12 or 36 h culture under distinct activation conditions. […] IL-1β amounts secreted into the cell media were measured by ELISA, according to the manufacturer's protocol (R&D Systems, Abingdon, UK).

B1: A8delta71-73: Dual C5aR/C5L2 receptor antagonist; C5a variant A8 (C27A, H67F, D69R, M70S, Q71L, G73R, Arg74 deleted) lacking amino acids 71-73 (protein)
chain: TLQKKIEEIAAKYKHSVVKKCCYDGAAVNNDETCEQRAARISLGPRCIKAFTECCVVASQLRANISFKRS
Q: Which results are given for B1?
A: suppressor function of nTregs [1]: markedly reduced; IL-1β secretion (human CD4+ T cells): increased IL-1β secretion
